Laboratory results as given in paper PMC4165587, “Comparison of the Structure and Function of Phospholamban and the Arginine-14 Deficient Mutant Associated with Dilated Cardiomyopathy” (PLoS ONE, 2014).

Molecular target: the molecule itself
Experiment: SDS-PAGE; recombinant PLB in isolation, solubilised in LDS sample buffer; 4-12% Bolt Bis-Tris Plus gel, MES SDS running buffer; Coomassie stain

B1: wild type phospholamban (PLBWT), full length, recombinant (natural protein, human, UniProt P26678 1-52, looked up)
chain: MEKVQYLTRSAIRRASTIEMPQQARQKLQNLFINFCLILICLLLICIIVMLL
notes: phospholamban, human, 52 amino acids, full length, non-acetylated; Untagged after TEV cleavage; also called Rec WT; source: E. coli C41(DE3), MBP fusion (pMAL c2X), purified on amylose, cleaved with TEV protease, chloroform/methanol extraction; not shown: MBP, N-terminal, cleaved
For B1, the “stoichiometry N” value was 5.

B2: phospholamban with a deletion of arginine at position 14 (PLBR14Δ), full length, recombinant (natural protein, human, UniProt P26678 1-52, looked up)
chain: MEKVQYLTRSAIRASTIEMPQQARQKLQNLFINFCLILICLLLICIIVMLL
notes: phospholamban, human, full length, non-acetylated, with the deletion of Arg14 that is associated with human dilated cardiomyopathy; Made from the human PLBWT DNA by site-directed ligase-independent mutagenesis; A synthetic full-length PLBR14Δ was also bought (Activotec), but the experiments written here name the recombinant protein; also called Rec R14Δ; PLBR14D; source: E. coli C41(DE3), MBP …
In the case of B2, the “stoichiometry N” value is reported as 5.
